Assay results taken from US20240132578A1.

What was measured:
Test in all cases: cell-based or functional assay
[1] = molecular target: HIV-1 Env of isolate MGRM-D-016 (clade D pseudovirus) (HIV-1)
[2] = molecular target: HIV-1 Env of isolate MGRM-D-005 (clade D pseudovirus) (HIV-1)
[3] = molecular target: HIV-1 MGRM-AG-005 Env (pseudovirus) (HIV-1)
[4] = molecular target: HIV-1 Env of isolate MGRM-D-002 (clade D pseudovirus) (HIV-1)
[5] = molecular target: HIV-1 IAVI-C22 envelope (Env) on pseudovirus (HIV-1)
[6] = molecular target: HIV-1 Env of pseudovirus MGRM-G-014 (HIV-1)
[7] = molecular target: HIV-1 MGRM-AE-001 Env (pseudovirus) (HIV-1)
[8] = molecular target: HIV-1 MGRM-AE-005 Env (pseudovirus) (HIV-1)
[9] = molecular target: HIV-1 Env of isolate 92RW026 (clade A pseudovirus) (HIV-1)
[10] = molecular target: HIV-1 MGRM-G-006 Env (pseudovirus) (HIV-1)
[11] = molecular target: HIV-1 Env of pseudovirus MGRM-G-013 (HIV-1)
[12] = molecular target: HIV-1 Env of pseudovirus MGRM-F1-014 (clade F) (HIV-1)
[13] = molecular target: HIV-1 Env of isolate VLGCB3, clade B (HIV-1)
[14] = molecular target: HIV-1 IAVI-C18 envelope (Env) on pseudovirus (HIV-1)
[15] = molecular target: HIV-1 envelope glycoprotein (Env) of isolate MGRM-C-015 (HIV-1)
[16] = molecular target: HIV-1 isolate 94UG114 envelope glycoprotein (Env), clade D, on pseudovirus (HIV-1)
[17] = molecular target: HIV-1 Env of isolate MGRM-A-014 (clade A pseudovirus) (HIV-1)
[18] = molecular target: HIV-1 envelope glycoprotein (Env) of isolate MGRM-C-012 (HIV-1)
[19] = molecular target: HIV-1 envelope glycoprotein (Env) of isolate MGRM-C-023 (HIV-1)

1443_C16 (PG16) (TCN-116) (antibody), sequence (VH): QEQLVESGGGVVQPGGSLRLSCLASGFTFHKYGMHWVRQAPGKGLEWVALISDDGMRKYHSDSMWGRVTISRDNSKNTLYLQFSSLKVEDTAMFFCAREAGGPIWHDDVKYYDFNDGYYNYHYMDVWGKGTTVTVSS
1443_C16 (PG16) (TCN-116) (antibody), sequence (VL): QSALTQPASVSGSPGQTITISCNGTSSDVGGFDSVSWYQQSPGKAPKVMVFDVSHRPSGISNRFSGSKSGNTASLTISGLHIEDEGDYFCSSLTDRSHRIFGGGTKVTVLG

Substance	IC50, pseudovirus neutralization [1]	IC50, pseudovirus neutralization [2]	IC50 (µg/ml), pseudovirus neutralization [3]	IC50, pseudovirus neutralization [4]	neutralization IC50 [5]	IC50 (µg/ml), pseudovirus neutralization [6]	IC50 (µg/ml), pseudovirus neutralization [7]	IC50 (µg/ml), pseudovirus neutralization [8]	IC50 (µg/ml), pseudovirus neutralization [9]	IC50 (µg/ml), pseudovirus neutralization [10]	IC50 (µg/ml), pseudovirus neutralization [11]	IC50 [12]	IC50 (µg/ml), pseudovirus neutralization [13]	neutralization IC50 [14]	IC50 (µg/ml), pseudovirus neutralization [15]	IC50 (µg/ml), pseudovirus neutralization [16]	IC50 (µg/ml), pseudovirus neutralization [17]	IC50 (µg/ml), pseudovirus neutralization [18]	IC50 (µg/ml), pseudovirus neutralization [19]
2F5 (antibody)	9.85 µg/mL	> 50 µg/mL	> 50 µg/mL	24.6 µg/mL	> 50 µg/mL	9.65 µg/mL	0.29 µg/mL	0.14 µg/mL	8.63 µg/mL	1.33 µg/mL	0.59 µg/mL	15.1 µg/mL	> 50 µg/mL	> 50 µg/mL	> 50 µg/mL	> 50 µg/mL	1.43 µg/mL	> 50 µg/mL	> 50 µg/mL
2G12 (antibody)	> 50 µg/mL	25.7 µg/mL	> 50 µg/mL	> 50 µg/mL	> 50 µg/mL	> 50 µg/mL	> 50 µg/mL	> 50 µg/mL	17.2 µg/mL	> 50 µg/mL	> 50 µg/mL	> 50 µg/mL	7.9 µg/mL	> 50 µg/mL	1.75 µg/mL	13.9 µg/mL	> 50 µg/mL	> 50 µg/mL	> 50 µg/mL
1495_C14 (PGC14) (antibody)	> 50 µg/mL	> 50 µg/mL	> 50 µg/mL	29 µg/mL	9.5 µg/mL	> 50 µg/mL	> 50 µg/mL	> 50 µg/mL	> 50 µg/mL	> 50 µg/mL	> 50 µg/mL	> 50 µg/mL	21 µg/mL	> 50 µg/mL	> 50 µg/mL	> 50 µg/mL	> 50 µg/mL	> 50 µg/mL	> 50 µg/mL
1443_C16 (PG16) (TCN-116) (antibody)	0.02 µg/mL	19.7 µg/mL	> 50 µg/mL	0.01 µg/mL	0.0687 µg/mL	6.98 µg/mL	4.33 µg/mL	0.02 µg/mL	0.03 µg/mL	2.42 µg/mL	> 50 µg/mL	0.01 µg/mL	0.4 µg/mL	0.0067 µg/mL	0.26 µg/mL	> 50 µg/mL	20.3 µg/mL	0.48 µg/mL	0.09 µg/mL
b12 (antibody)	1.12 µg/mL	> 50 µg/mL	> 50 µg/mL	> 50 µg/mL	3.6 µg/mL	> 50 µg/mL	25.9 µg/mL	0.63 µg/mL	> 50 µg/mL	> 50 µg/mL	> 50 µg/mL	> 50 µg/mL	0.15 µg/mL	> 50 µg/mL	13.3 µg/mL	> 50 µg/mL	> 50 µg/mL	> 50 µg/mL	13.9 µg/mL
4E10 (antibody)	15.4 µg/mL	35.2 µg/mL	2.13 µg/mL	9.44 µg/mL	1.02 µg/mL	13.7 µg/mL	0.85 µg/mL	0.47 µg/mL	12.9 µg/mL	1.23 µg/mL	1.15 µg/mL	7.36 µg/mL	5.76 µg/mL	> 50 µg/mL	2.52 µg/mL	9.72 µg/mL	1.74 µg/mL	0.44 µg/mL	1.95 µg/mL
